Holding throughout (experiment): SEC-MALS; static light scattering (MiniDAWN TREOS, three angles) inline with size exclusion on Superdex S75 10/300; 100 mM Na-phosphate pH 7.4, 400 mM NaCl; PfMDH-WT injected at 1.0 mg/ml
In general terms: In gel filtration, larger molecules generally elute earlier.

Test [1] addresses PfMDH-E18Q, His6-tagged (Plasmodium falciparum).
Test [2] addresses PfMDH-E18W, His6-tagged (Plasmodium falciparum).
The target of test [3] is PfMDH-V190W, His6-tagged (Plasmodium falciparum).
For test [4], the target named is Wild-type malate dehydrogenase from Plasmodium falciparum (PfMDH-WT), His6-tagged (Plasmodium falciparum).

As usually defined, the stoichiometry N is a count of units in the complex or per binding partner.

With PfMDH-E18Q, His6-tagged (enzyme), the stoichiometry N in test [1] is 4.

For PfMDH-E18W, His6-tagged (enzyme), in test [2], the stoichiometry N was 2.

In test [3], PfMDH-V190W, His6-tagged (enzyme) gave a stoichiometry N of 2.

As to “Wild-type malate dehydrogenase from Plasmodium falciparum (PfMDH-WT), His6-tagged (enzyme)”, in test [4], the stoichiometry N was 4.

Values taken from PMC5919072.
